The values that follow come from article PMC10764318 (Nature Communications, 2024).

The labels stand for the following.
B1: A19-61.1 (antibody, V domains shown)
VH: QVQLVESGGGVVQPGRSLRLSCAASGFTFSSYAFHWVRQAPGKGLEWVAVISYDGSNQYYADSVKGRFTISRDNSKNTLYLQMNSLRADDTAVYYCARDLAIAVAGTWHYYNGMDVWGQGTTVTVSS
VL: DIQMTQSPSSVSASVGDRVIITCRASQGISSWLAWYQQKPGKAPKVLIYDASSLQSGVPSRFSGSGYGTDFTLTISSLQPEDSATYYCQQAKSFPITFGQGTRLEIK
notes: control antibody, IgG1; also called antigen site F (Class III); source: Expi293F, purified; expressed as human IgG1
B2: CB6 (antibody, V domains shown)
VH: EVQLVESGGGLVQPGGSLRLSCAASGFTVSSNYMSWVRQAPGKGLEWVSVIYSGGSTFYADSVKGRFTISRDNSMNTLFLQMNSLRAEDTAVYYCARVLPMYGDYLDYWGQGTLVTVSS
VL: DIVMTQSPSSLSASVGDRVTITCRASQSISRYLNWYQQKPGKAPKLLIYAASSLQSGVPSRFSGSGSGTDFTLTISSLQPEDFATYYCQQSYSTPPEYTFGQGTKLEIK
notes: control antibody, IgG1; also called antigen site B (Class I); source: Expi293F, purified; expressed as human IgG1
B3: A19-46.1 (antibody, V domains shown)
VH: QVQLVESGGGVVQPGRSLRLSCAASGFTLSSYGMHWVRQAPGKGLEWVAVISYDGSNKYYVDSVKGRFTISRDNSKNTLYLQMNSLRAEDTAVYYCARGWAYWELLPDYYYGMDVWGQGTTVTVSS
VL: QTVVTQEPSFSVSPGGTVTLTCGLSSGSVSTAYFPSWYQQTPGQAPRTLIYGTNTRSSGVPDRFSGSILGNKAALTITGAQADDESDYYCVLYMGRGIVVFGGGTKLTVL
notes: control antibody, IgG1; also called antigen site D (Class II); source: Expi293F, purified; expressed as human IgG1
B4: LY-CoV-555 (antibody, V domains shown)
VH: QVQLVQSGAEVKKPGSSVKVSCKASGGTFSNYAISWVRQAPGQGLEWMGRIIPILGIANYAQKFQGRVTITADKSTSTAYMELSSLRSEDTAVYYCARGYYEARHYYYYYAMDVWGQGTAVTVSS
VL: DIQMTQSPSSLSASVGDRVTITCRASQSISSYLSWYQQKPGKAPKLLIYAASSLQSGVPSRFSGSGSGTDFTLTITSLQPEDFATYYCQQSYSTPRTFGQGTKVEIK
notes: control antibody, IgG1; also called antigen site E (Class II); source: Expi293F, purified; expressed as human IgG1
B5: WRAIR-5004 (antibody, V domains shown)
VH: QVQLVQSGAEIKQPGASVKLSCKASGYTFTTYYIHWVRQAPGQGLEWIGLISPYNGNRGYAQNFQGRVTITTDTSTSTGYMELSSLRSEDTAVYYCTRERVVAAAGYFDYWGQGVLVTVSS
VL: SYELTQPPSVSVSPGQTARITCGGDNIGSKNVQWYQQKPAQAPVLVIYDDSERPSGIPERFSGSNSGNTATLTISGVEAGDEAGYSCQVWDSSPDHYIFGAGTRLTVLG
notes: also called CoV_5004; source: Expi293F, transfected, purified (Protein A magnetic beads)
B6: WRAIR-5011 (antibody, V domains shown)
V domain 1: EVQLVQSGAEIKQPGASVKLSCKASGYTFTSYYIHWVRQAPGQGLEWIGLISPYNGNRAYAQNFQGRVTITTDTSTSTVYMELSSLKSEDTAVYYCAGEEYSNYGYFDLWGPGTPITISS
V domain 2: B5 VL with G84D, S86Y, P94G
notes: also called CoV_5011; source: Expi293F, transfected, purified (Protein A magnetic beads)
B7: WRAIR-5005 (antibody, V domains shown)
VH: QVQLQESGPGLVKPSETLSLTCAVSGSSVNSGYGWTWLRQPPGKGLEWIGYIGGGSGSTIYNPSLKSRLTISKDTSKNQFSLKLSSVTAADTAVYYCASLDYGTTYSWFDVWGPGVLVTVSS
VL: SYELTQPRSVSVSPGQMARITCGGDNIGSKSVQWYQHKPPQAPVLVIYADSERPSGIPERFSGSNSGNTATLTISGVEAGDEADYYCQVWDSSSDVLFGGGTRLTVLG
notes: also called CoV_5005; source: Expi293F, transfected, purified (Protein A magnetic beads)
B8: WRAIR-5001 (antibody, V domains shown)
VH: QVQLVQSGAEVKKPGASVKLSCKASGYTFTSYSINWVRQAPGQGLEWMGWVNPSNGVTVYAQKFQGRVTMTRDTSTSTAYMELSSLRFEDTAVYYCARERDQLVVYFDHWGQGALVTVSS
VL: SYELTQPRSVSVSPGQTARITCGGDNIASKNVHWYQQKLAQAPVLVIYYDSDRPSGIPERFSGSNSGNTATLTISGVEAGDEADYYCQVWDSYSGHHVLFGGGTRLTVLG
notes: also called CoV_5001; source: Expi293F, transfected, purified (Protein A magnetic beads)
B9: WRAIR-5021 (antibody, V domains shown)
VH: QVQLQESGPGLVKPSETLSLTCAVSGYSISSGYYWGWIRQPPGKGLEYIGYFSGTTGSTYYNPSLKSRVTISKDTSKNQFSLKLNSVTAADTAVYYCARQPPRFDVWGPGVLVTVST
VL: DIQMTQSPSSLSASVGDTVTITCRASQGISNFLNWYQQKPGKAPKLLIYDASRLESGVPSRFSGSGSGTEFTLTISSLQPEDFATYHCLQYDSDPFTFGPGTKLDIKR
notes: also called CoV_5021; source: Expi293F, transfected, purified (Protein A magnetic beads)
B10: WRAIR-5020 (antibody, V domains shown)
VH: QVQLQESGPGLVKPSETLSLTCAVSGASISSYWWGWIRQPPGKGLEWIGRISGSSGSTSYNPSLKSRVTISTDTSKNQFSLKLSSVTAADTAVYYCASRITIFGLLRSYWGQGVLVTVSS
VL: EIVMTQSPATLSLSPRERATLSCRASQSVSSNLAWYQQKPGQAPRLLIYYASNRATGIPDRFSGSGSGTDFTLTISSLEPEDVGLYYCQQESNWPWTFGQGTKVEIKR
notes: also called CoV_5020; source: Expi293F, transfected, purified (Protein A magnetic beads)

Changes are numbered by the printed parent chain.

The first test concerns the target T1, SARS-CoV-2 RBD (318-514), Avi-tagged, biotinylated (SARS-CoV-2, UniProt P0DTC2, biotin (BirA biotinylation kit)).
T1 construct: source: Expi293F, purified (Ni-NTA); biotinylated with the BirA kit
Briefly: BLI. As to conditions: both partners purified.
For B1, the binding result is “binds”.
As for B2, the binding result was “binds”.
On the same count and under the same terms, the value for B3 was “binds”; that for B4 was “binds”.

The target in the next test is T2, SARS-CoV-2 WA-1 RBD (SARS-CoV-2, UniProt P0DTC2 331-527).
T2 construct: source: Expi293F, purified (Ni-NTA)
Briefly: BLI. As to conditions: both partners purified.
B5 gave a Kd of 0.72 ± 0.015 nM, an off-rate constant (koff) of 0.000154 s⁻¹ and an on-rate (kon) of 199000 M⁻¹ s⁻¹.
Take B6: the Kd was determined as 0.69 ± 0.013 nM, the koff is 0.000147 s⁻¹ and the kon was 215000 M⁻¹ s⁻¹.
In the same order, the values of B7 are 1.14 ± 0.013 nM, 0.000238 s⁻¹ and 209000 M⁻¹ s⁻¹.
For the molecule B8, the koff was found to be 0.000119 s⁻¹ and the on-rate (kon) turned out to be 209000 M⁻¹ s⁻¹.
B9 gave a Kd of 1.09 ± 0.007 nM, a dissociation rate constant (koff) of 0.000353 s⁻¹ and an on-rate (kon) of 325000 M⁻¹ s⁻¹.
Molecule B10 came in with a dissociation constant Kd of 13 ± 0.1 nM, a koff of 0.00273 s⁻¹ and an association rate constant (kon) of 210000 M⁻¹ s⁻¹.
